Results from patent US20030215913A1 (published 2003).

molecular target: T1, LP226 (human, UniProt Q6WN34 26-429, limits assumed); assay: BIAcore 2000 SPR, LP226 amine-coupled to CM5 chip, ligand injected
T1 construct: Secreted chordin-like protein; the cleavage site was not determined by experiment; also called LP226 polypeptide; LP polypeptide
T1 sequence: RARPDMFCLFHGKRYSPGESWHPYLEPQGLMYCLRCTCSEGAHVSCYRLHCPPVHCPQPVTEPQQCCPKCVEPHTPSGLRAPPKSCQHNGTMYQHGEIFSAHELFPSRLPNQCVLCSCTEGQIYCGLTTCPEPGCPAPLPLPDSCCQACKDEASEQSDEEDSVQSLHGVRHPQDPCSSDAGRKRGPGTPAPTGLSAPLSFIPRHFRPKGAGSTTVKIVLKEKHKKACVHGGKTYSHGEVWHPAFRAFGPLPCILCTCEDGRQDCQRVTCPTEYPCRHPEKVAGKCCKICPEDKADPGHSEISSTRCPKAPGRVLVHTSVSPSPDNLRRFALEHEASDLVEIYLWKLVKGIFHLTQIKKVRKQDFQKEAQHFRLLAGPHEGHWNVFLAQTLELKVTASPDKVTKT
Description: A BIAcore 2000 instrument is used to detect real-time binding between immobilized LP226 and various TGF-beta and BMP proteins. LP226 is diluted to a concentration of […] in 10 mM sodium acetate buffer at pH 5.0. LP226 is immobilized to a CM5 sensor chip using the amine coupling method. Follistatin, containing BSA, is immobilized as a positive control.
TGF-beta and BMP proteins are diluted in HBS-EP buffer. Samples are injected over LP226 and control surfaces using the kinject method. Samples containing 5 µg/mL and 1 μg/mL of protein are injected at 30 μL/min for three minutes with a ninety second dissociation time. LP226 and control surfaces are then regenerated with glycine-hydrochloride at pH 3.0.

Binder | binding result
BMP-5 (ligand, UniProt P22003 317-454, looked up) AANKRKNQNRNKSSSHQDSSRMSSVGDYNTSEQKQACKKHELYVSFRDLGWQDWIIAPEGYAAFYCDGECSFPLNAHMNATNHAIVQTLVHLMFPDHVPKPCCAPTKLNAISVLYFDDSSNVILKKYRNMVVRSCGCH | no binding (tested: 5 g/mL and 1 µg/mL)
BMP-6 (ligand, UniProt P22004 382-513, looked up) QQSRNRSTQSQDVARVSSASDYNSSELKTACRKHELYVSFQDLGWQDWIIAPKGYAANYCDGECSFPLNAHMNATNHAIVQTLVHLMNPEYVPKPCCAPTKLNAISVLYFDDNSNVILKKYRNMVVRACGCH | no binding (tested: 5 g/mL and 1 µg/mL)
fas-ligand (ligand, UniProt P48023 134-281, looked up, Negative control injected over the LP226 surface; also called negative control) PSPPPEKKELRKVAHLTGKSNSRSMPLEWEDTYGIVLLSGVKYKKGGLVINETGLYFVYSKVYFRGQSCNNLPLSHKVYMRNSKYPQDLVMMEGKMMSYCTTGQMWARSSYLGAVFNLTSADHLYVNVSELSLVNFEESQTFFGLYKL | no binding
